# Reference: patent US20070081999A1
# Key:
# [1] = target: human von Willebrand factor (vWF) (human) (UniProt P04275); assay: cell-based or functional assay
# [2] = target: human von Willebrand factor (vWF) (human) (UniProt P04275); assay: competition ELISA: inhibition of plasma or purified human vWF binding to coated human collagen type I
# [3] = target: baboon von Willebrand factor (vWF) (baboon); assay: ex vivo occupancy ELISA, baboon plasma, 600 µg/kg group, 0 min (before dosing)
# [4] = target: baboon von Willebrand factor (vWF) (baboon); assay: ex vivo ELISA on coated human collagen type I, baboon plasma 60 min after 600 µg/kg mAb 82D6A3
# [5] = target: baboon von Willebrand factor (vWF) (baboon); assay: ex vivo occupancy ELISA, baboon plasma, 600 µg/kg, 30 min
# [6] = target: baboon von Willebrand factor (vWF) (baboon); assay: ex vivo occupancy ELISA, baboon plasma, 600 µg/kg, 24 h
# [7] = target: baboon von Willebrand factor (vWF) (baboon); assay: ex vivo occupancy ELISA, baboon plasma, 300 µg/kg, 300 min
# [8] = target: baboon von Willebrand factor (vWF) (baboon); assay: ex vivo occupancy ELISA, baboon plasma, 300 µg/kg, 30 min
# [9] = target: baboon von Willebrand factor (vWF) (baboon); assay: ex vivo occupancy ELISA (vWF captured, bound mAb detected), baboon plasma, 100 µg/kg group, 0 min (before dosing)
# [10] = target: baboon von Willebrand factor (vWF) (baboon); assay: ex vivo occupancy ELISA, baboon plasma, 300 µg/kg group, 0 min (before dosing)
# [11] = target: baboon von Willebrand factor (vWF) (baboon); assay: ex vivo vWF-occupancy ELISA on baboon plasma against 82D6A3 plasma level
# [12] = target: baboon von Willebrand factor (vWF) (baboon); assay: ex vivo occupancy ELISA, baboon plasma, 300 µg/kg, 60 min
# [13] = target: baboon von Willebrand factor (vWF) (baboon); assay: ex vivo ELISA on coated human collagen type I, baboon plasma 1 hour after 100 µg/kg mAb 82D6A3
# [14] = target: baboon von Willebrand factor (vWF) (baboon); assay: ex vivo occupancy ELISA, baboon plasma, 100 µg/kg, 60 min
# [15] = target: baboon von Willebrand factor (vWF) (baboon); assay: ex vivo occupancy ELISA, baboon plasma, 300 µg/kg, 48 h
# [16] = target: baboon von Willebrand factor (vWF) (baboon); assay: ex vivo occupancy ELISA, baboon plasma, 100 µg/kg, 30 min
# [17] = target: baboon von Willebrand factor (vWF) (baboon); assay: ex vivo occupancy ELISA, baboon plasma, 300 µg/kg, 150 min
# [18] = target: baboon von Willebrand factor (vWF) (baboon); assay: ex vivo ELISA on coated human collagen type I, baboon plasma 60 min after 300 µg/kg mAb 82D6A3
# [19] = target: baboon von Willebrand factor (vWF) (baboon); assay: ex vivo occupancy ELISA, baboon plasma, 600 µg/kg, 150 min
# [20] = target: baboon von Willebrand factor (vWF) (baboon); assay: ex vivo occupancy ELISA, baboon plasma, 300 µg/kg, 24 h
# [21] = target: baboon von Willebrand factor (vWF) (baboon); assay: ex vivo occupancy ELISA, baboon plasma, 600 µg/kg, 60 min
# [22] = target: baboon von Willebrand factor (vWF) (baboon); assay: ex vivo occupancy ELISA, baboon plasma, 600 µg/kg, 300 min
# [23] = target: human placental collagen type I (fibrillar) (human) (UniProt P02452); assay: ex vivo ELISA on coated human collagen type I, baboon plasma 150 min after 600 µg/kg mAb 82D6A3, against the pre sample
# [24] = target: human placental collagen type I (fibrillar) (human) (UniProt P02452); assay: ex vivo ELISA on coated human collagen type I, baboon plasma 24 h after 300 µg/kg mAb 82D6A3, against the pre sample
# [25] = target: human placental collagen type I (fibrillar) (human) (UniProt P02452); assay: ex vivo ELISA on coated human collagen type I, baboon plasma 30 min after 600 µg/kg mAb 82D6A3, against the pre sample
# [26] = target: human placental collagen type I (fibrillar) (human) (UniProt P02452); assay: ex vivo ELISA on coated human collagen type I, baboon plasma, 600 µg/kg mAb 82D6A3 group, 0 min (before dosing; pre sample set as 100%)
# [27] = target: human placental collagen type I (fibrillar) (human) (UniProt P02452); assay: ex vivo ELISA on coated human collagen type I, baboon plasma 60 min after 300 µg/kg mAb 82D6A3, against the pre sample
# [28] = target: human placental collagen type I (fibrillar) (human) (UniProt P02452); assay: ex vivo ELISA on coated human collagen type I, baboon plasma 48 h after 300 µg/kg mAb 82D6A3, against the pre sample
# [29] = target: human placental collagen type I (fibrillar) (human) (UniProt P02452); assay: ex vivo ELISA on coated human collagen type I, baboon plasma 300 min after 600 µg/kg mAb 82D6A3, against the pre sample
# [30] = target: human placental collagen type I (fibrillar) (human) (UniProt P02452); assay: ex vivo ELISA on coated human collagen type I, baboon plasma 60 min after 600 µg/kg mAb 82D6A3, against the pre sample
# [31] = target: human placental collagen type I (fibrillar) (human) (UniProt P02452); assay: ex vivo ELISA on coated human collagen type I, baboon plasma 30 min after 300 µg/kg mAb 82D6A3, against the pre sample
# [32] = target: human placental collagen type I (fibrillar) (human) (UniProt P02452); assay: ex vivo ELISA on coated human collagen type I, baboon plasma 300 min after 300 µg/kg mAb 82D6A3, against the pre sample
# [33] = target: human placental collagen type I (fibrillar) (human) (UniProt P02452); assay: ex vivo ELISA on coated human collagen type I, baboon plasma 60 min after 100 µg/kg mAb 82D6A3, against the pre sample
# [34] = target: human placental collagen type I (fibrillar) (human) (UniProt P02452); assay: ex vivo ELISA on coated human collagen type I, baboon plasma 24 h after 600 µg/kg mAb 82D6A3, against the pre sample
# [35] = target: human placental collagen type I (fibrillar) (human) (UniProt P02452); assay: ex vivo ELISA on coated human collagen type I, baboon plasma, 300 µg/kg mAb 82D6A3 group, 0 min (before dosing; pre sample set as 100%)
# [36] = target: human placental collagen type I (fibrillar) (human) (UniProt P02452); assay: ex vivo ELISA on coated human collagen type I, baboon plasma, 100 µg/kg mAb 82D6A3 group, 0 min (before dosing; pre sample set as 100%)
# [37] = target: human placental collagen type I (fibrillar) (human) (UniProt P02452); assay: ex vivo ELISA on coated human collagen type I, baboon plasma 150 min after 300 µg/kg mAb 82D6A3, against the pre sample
# [38] = target: human placental collagen type I (fibrillar) (human) (UniProt P02452); assay: ex vivo ELISA on coated human collagen type I, baboon plasma 30 min after 100 µg/kg mAb 82D6A3, against the pre sample
# Sequence of baboon von Willebrand factor (vWF) (baboon) (A0A096 entry or part of it limits assumed, form in doubt): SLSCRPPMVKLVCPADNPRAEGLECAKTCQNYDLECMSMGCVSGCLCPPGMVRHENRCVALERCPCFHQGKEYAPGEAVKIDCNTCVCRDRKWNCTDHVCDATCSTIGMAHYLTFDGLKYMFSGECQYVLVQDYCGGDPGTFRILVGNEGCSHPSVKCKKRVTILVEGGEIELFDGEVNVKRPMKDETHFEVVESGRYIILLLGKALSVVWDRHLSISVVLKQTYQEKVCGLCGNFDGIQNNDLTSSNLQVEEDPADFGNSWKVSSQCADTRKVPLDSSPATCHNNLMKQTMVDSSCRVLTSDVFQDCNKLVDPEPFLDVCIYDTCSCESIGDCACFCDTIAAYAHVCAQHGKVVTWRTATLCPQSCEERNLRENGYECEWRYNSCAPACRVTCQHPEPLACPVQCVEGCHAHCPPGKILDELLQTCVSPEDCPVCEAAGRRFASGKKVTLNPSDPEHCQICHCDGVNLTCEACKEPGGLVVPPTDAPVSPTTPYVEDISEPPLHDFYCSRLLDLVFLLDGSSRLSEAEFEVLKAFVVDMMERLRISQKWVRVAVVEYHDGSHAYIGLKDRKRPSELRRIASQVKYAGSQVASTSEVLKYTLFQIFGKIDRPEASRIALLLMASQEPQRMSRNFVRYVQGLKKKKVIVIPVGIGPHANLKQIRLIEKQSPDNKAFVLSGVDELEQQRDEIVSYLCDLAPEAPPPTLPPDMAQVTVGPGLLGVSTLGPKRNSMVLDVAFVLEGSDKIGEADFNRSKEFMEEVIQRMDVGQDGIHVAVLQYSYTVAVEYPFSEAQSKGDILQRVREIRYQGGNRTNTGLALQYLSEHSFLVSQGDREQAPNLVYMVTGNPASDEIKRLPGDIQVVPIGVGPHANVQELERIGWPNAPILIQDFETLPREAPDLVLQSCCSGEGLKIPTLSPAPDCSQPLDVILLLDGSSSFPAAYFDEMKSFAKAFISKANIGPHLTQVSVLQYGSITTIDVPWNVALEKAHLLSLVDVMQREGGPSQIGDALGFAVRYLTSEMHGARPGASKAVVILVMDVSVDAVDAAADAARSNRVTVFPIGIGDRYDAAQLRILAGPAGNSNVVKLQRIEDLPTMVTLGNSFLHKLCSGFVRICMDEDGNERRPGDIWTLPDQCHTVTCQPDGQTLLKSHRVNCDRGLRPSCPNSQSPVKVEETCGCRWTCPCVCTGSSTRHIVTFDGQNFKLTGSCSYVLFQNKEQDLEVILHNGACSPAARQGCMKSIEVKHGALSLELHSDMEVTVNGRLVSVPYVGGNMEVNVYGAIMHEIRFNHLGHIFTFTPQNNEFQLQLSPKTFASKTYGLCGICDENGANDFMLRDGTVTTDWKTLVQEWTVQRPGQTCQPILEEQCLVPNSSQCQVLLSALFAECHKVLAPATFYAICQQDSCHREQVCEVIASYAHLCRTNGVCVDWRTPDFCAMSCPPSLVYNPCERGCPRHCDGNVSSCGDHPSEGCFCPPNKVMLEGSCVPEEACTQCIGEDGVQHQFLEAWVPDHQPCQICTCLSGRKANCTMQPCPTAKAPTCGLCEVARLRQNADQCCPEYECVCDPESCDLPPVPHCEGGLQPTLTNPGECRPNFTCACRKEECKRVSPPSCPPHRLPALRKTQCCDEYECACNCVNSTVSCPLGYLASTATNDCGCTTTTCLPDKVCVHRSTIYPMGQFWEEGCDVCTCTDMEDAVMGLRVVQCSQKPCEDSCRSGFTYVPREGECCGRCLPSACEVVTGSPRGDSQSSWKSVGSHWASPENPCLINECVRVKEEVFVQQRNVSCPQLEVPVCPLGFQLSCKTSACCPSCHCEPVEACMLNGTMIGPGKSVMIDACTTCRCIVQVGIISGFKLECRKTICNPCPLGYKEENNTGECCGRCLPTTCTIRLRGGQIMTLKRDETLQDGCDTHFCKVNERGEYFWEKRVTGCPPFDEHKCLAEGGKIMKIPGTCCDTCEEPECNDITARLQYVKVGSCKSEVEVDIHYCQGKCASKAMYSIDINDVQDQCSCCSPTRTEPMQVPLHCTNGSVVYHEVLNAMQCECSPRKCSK
# Sequence of human von Willebrand factor (vWF) (human) (P04275 764-2813 limits assumed): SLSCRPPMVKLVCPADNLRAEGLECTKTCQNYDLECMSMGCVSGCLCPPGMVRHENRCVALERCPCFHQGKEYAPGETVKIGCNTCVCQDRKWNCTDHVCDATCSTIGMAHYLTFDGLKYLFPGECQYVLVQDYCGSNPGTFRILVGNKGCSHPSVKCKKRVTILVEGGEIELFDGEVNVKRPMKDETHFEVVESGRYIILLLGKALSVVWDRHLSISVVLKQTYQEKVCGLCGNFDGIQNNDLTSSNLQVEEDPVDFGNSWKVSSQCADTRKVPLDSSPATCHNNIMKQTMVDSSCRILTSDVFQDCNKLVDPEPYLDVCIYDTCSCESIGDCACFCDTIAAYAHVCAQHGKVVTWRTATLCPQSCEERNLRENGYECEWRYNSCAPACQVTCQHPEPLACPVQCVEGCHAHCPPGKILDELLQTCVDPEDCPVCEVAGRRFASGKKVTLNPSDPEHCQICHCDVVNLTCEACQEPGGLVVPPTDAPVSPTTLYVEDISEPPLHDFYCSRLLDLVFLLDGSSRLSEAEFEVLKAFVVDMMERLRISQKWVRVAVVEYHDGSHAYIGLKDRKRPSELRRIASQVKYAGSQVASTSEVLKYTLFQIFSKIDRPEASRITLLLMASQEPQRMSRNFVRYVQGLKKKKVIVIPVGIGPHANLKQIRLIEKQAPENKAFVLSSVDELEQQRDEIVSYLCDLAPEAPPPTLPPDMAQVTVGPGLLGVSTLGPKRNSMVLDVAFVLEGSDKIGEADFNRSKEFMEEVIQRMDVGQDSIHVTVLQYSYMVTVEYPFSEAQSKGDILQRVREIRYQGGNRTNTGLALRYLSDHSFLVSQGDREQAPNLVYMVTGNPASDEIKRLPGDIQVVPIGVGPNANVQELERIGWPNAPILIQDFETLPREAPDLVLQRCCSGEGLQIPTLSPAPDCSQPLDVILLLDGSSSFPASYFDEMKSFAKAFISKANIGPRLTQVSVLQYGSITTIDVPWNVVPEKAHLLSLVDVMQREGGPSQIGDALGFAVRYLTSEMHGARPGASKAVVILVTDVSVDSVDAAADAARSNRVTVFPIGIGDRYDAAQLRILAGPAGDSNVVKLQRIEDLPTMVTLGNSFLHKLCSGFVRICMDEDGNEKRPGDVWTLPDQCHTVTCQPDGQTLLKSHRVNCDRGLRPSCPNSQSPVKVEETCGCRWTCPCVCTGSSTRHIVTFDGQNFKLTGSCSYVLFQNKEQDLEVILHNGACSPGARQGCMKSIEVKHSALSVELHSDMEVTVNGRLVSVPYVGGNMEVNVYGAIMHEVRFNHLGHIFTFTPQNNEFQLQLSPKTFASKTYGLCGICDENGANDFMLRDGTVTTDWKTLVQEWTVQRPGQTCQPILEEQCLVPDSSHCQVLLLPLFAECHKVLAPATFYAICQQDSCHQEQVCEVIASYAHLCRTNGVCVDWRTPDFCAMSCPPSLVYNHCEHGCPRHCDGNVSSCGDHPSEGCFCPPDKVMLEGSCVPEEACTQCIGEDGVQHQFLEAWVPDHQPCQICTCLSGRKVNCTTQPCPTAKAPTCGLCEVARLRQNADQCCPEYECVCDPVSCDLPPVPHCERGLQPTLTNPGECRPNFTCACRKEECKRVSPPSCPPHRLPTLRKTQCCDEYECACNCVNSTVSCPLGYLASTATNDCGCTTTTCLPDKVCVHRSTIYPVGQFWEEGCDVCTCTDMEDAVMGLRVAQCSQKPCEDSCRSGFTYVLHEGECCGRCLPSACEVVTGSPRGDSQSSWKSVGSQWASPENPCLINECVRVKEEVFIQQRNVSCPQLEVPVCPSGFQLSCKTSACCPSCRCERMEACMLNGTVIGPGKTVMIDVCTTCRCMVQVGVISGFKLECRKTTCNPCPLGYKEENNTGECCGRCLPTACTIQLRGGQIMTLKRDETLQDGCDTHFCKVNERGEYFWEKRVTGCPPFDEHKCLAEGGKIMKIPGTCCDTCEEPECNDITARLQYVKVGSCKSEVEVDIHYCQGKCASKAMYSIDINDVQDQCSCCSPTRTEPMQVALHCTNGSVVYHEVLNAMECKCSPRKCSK
substance,measurement,setting,value
82D6A3 F(ab) fragment (Fab),"platelet deposition onto human collagen type I in flow, shear rate 1300 s^-1",[1],10 µg/mL
same,IC50,[2],1 µg/mL
murine anti-human vWF monoclonal antibody mAb 82D6A3,vWF occupancy (%),[3],6.9%
same,ex vivo inhibition of the vWF-collagen interaction (%),[4],96%
same,vWF occupancy (%),[5],96%
same,vWF occupancy (%),[6],88%
same,vWF occupancy (%),[7],94%
same,vWF occupancy (%),[8],102%
same,vWF occupancy (%),[9],2.3%
same,vWF occupancy (%),[10],2.3%
same,plasma level from which vWF-occupancy is maximal,[11],1 µg/mL
same,"platelet deposition onto human collagen type I in flow, shear rate 1300 s^-1",[1],1 to 5 µg/mL
same,vWF occupancy (%),[12],99%
same,ex vivo inhibition of the vWF-collagen binding (%),[13],31%
same,vWF occupancy (%),[14],80%
same,vWF occupancy (%),[15],63%
same,IC50,[2],0.02 µg/mL
same,vWF occupancy (%),[16],80%
same,vWF occupancy (%),[17],101%
same,ex vivo inhibition of the vWF-collagen interaction (%),[18],96%
same,vWF occupancy (%),[19],97%
same,vWF occupancy (%),[20],74%
same,vWF occupancy (%),[21],96%
same,vWF occupancy (%),[22],97%
"baboon von Willebrand factor (vWF), A0A096N8H2 764-2813",collagen binding (%),[23],3.52%
same,collagen binding (%),[24],91%
same,collagen binding (%),[25],4%
same,collagen binding (%),[26],100%
same,collagen binding (%),[27],4%
same,collagen binding (%),[28],93%
same,collagen binding (%),[29],4%
same,collagen binding (%),[30],3.5%
same,collagen binding (%),[31],4%
same,collagen binding (%),[32],4%
same,collagen binding (%),[33],69%
same,collagen binding (%),[34],45%
same,collagen binding (%),[35],101%
same,collagen binding (%),[36],101%
same,collagen binding (%),[37],4%
same,collagen binding (%),[38],64%
